The values below come from patent US20160237154A1 (SORRENTO THERAPEUTICS, published 2016).

As usually defined, the IC50 is the concentration needed to halve the response being measured. A word on the Kd: it is a measure of binding affinity in units of concentration. One may read the koff as the rate constant with which the complex falls apart. In general, kon refers to a measure of how fast the partners come together.

Assay [1] concerns the target T1, recombinant human CTLA4 (as human Fc fusion) (human, UniProt P16410 37-162, limits assumed).
T1 construct: not shown: human Fc
T1 sequence (looked up): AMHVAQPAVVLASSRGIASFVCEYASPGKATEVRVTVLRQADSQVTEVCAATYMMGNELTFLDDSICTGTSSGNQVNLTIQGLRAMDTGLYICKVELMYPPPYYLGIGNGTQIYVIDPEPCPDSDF
The experiment in a line: blocking ELISA: serially diluted IgG pre-mixed with recombinant human CTLA4-Fc, transferred to a Ni-NTA plate coated with His-tagged human CD86 (the blocked ligand); HRP anti-human Fc, OD 450. How it is done: (§1) Assays were performed to determine the ability of antibody CT1E1 to inhibit CD80 and CD86 activity. A 96-well Ni-NTA plate was coated with 1 μg/mL recombinant human CD80 or CD86 with hexahistidine tag at room temperature for 1 h. Pre-mixed 30 μL serial 3-fold diluted IgGs (started from 25 μg/mL) and 30 μL of […] recombinant human CTLA4 (as human Fc fusion) and incubated the mixtures for 30 minutes, then washed the plate with PBS-Tween (PBST) 3 times. The mixtures were transferred 50 μL to the ELISA plate and incubated 30 min with shaking. The plate was washed 3 times with PBST, then horseradish peroxidase (HRP)-conjugated goat anti-human Fc (1:500 in casein) was added, then 3,3′,5,5′-Tetramethylbenzidine (TMB) was added as substrate and developed 30 min. 2M H₂SO₄ was used to stop the reaction and the OD was read at 450 nm.
On the technique in general: In an ELISA, binding on a coated surface is turned into a signal by an enzyme label.

Assay [2] addresses T1, recombinant human CTLA4 (as human Fc …). Briefly: blocking ELISA: serially diluted IgG pre-mixed with recombinant human CTLA4-Fc, transferred to a Ni-NTA plate coated with His-tagged human CD80 (the blocked ligand); HRP anti-human Fc, OD 450. The procedure:
as §1

The target of assay [3] is T2, Recombinant human CTLA4/His (human, UniProt P16410 36-162, limits assumed).
T2 construct: not shown: His tag
T2 sequence (looked up): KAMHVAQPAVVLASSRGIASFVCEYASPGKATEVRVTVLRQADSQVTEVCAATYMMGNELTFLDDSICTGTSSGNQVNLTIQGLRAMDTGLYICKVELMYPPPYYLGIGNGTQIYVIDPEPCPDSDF
Briefly: SPR (BiaCore), antibody captured on anti-human Fc, His-tagged analyte, 1:1 model. How it is done:
The affinity of antibody CT1E1 for human CTLA4 was also determined using surface plasmon resonance (BiaCore). Anti-human Fc antibody (GE, BR-1008-39) was immobilized on CM5 sensor chip to approximately 1000 RU using standard NHS/EDC coupling methodology. Antibodies (about 10 μg/ml) were captured for 60 s at a flow rate 10 ul/min Recombinant human […] was serially diluted in running buffer (HBS-EP). All measurements were conducted in HBS-EP buffer with a flow rate of 30 μL/min. The antibody was diluted appropriately to obtain a series of concentrations. A 1:1 (Langmuir) binding model was used to fit the data. The Chi2 (chi-squared) value was used as a guideline for fitting quality. Results from the affinity studies are provided below in Table 2.
Background: Surface plasmon resonance follows binding to a sensor surface in real time, without labels.

For another assay, the target named is T3, mouse CTLA4/His (mouse, UniProt P09793 36-162, limits assumed).
T3 construct: also called murine CTLA4; not shown: His tag
Briefly: ELISA, CTLA4/His captured on Ni-NTA plate, antibody ~1 ug/mL, anti-human Fc-HRP. How it is done: Using a 96-well Ni-NTA plate recombinant human CTLA4/His, cynomolgus CTLA4/His or mouse CTLA4/His @ 1 μg/mL were captured. The plate was incubated for 30 min at room temperature, washed 3 times with PBS-Tween (PBST), then anti-CTLA4 antibodies (˜1 μg/mL) diluted in casein were added and incubated for 30 min with shaking. The plate was washed 3 times with PBST, horseradish peroxidase (HRP)-conjugated goat anti-human Fc (1:500 in casein) was added, then 3,3′,5,5′-Tetramethylbenzidine (TMB) was added as substrate and developed about 5 min. 2M H₂SO₄ was used to stop the reaction and the OD was read at 450 nm.

B1: CT1E1 (antibody, V domains shown)
VH: EVQLVESGGGLVQPGRSLRLSCRGSNFNFDDLAISWVRQAPGKGLEWLGFVRSKAYGETTDYVASVKGRFTISRDDSKFIAWLQMDSLKTDDTAVYYCTTFNYWGQGTLVTVSS
VL: QPVLTQPPSVSVAPGKTARISCGGNNIASEAVHWYQKKPGQAPVLVIYYDSDRPSGIPERFSGSNSGNTATLRISRVDAGDEADYYCQVWDRTTDQPVFGGGTKLTVL
notes: also called human anti-CTLA4 antibody CT1E1
In the case of B1, the IC50 in assay [1] is 0.329 nM. Further, the IC50 in assay [2] came out at 0.313 nM. Besides, in assay [3], the Kd amounted to 1.81 nM, the koff was found to be 0.000242 s⁻¹ and the kon is 133000 M⁻¹ s⁻¹. The binding result with mouse CTLA4/His is “binds”.
